Measured values as given in patent publication US20210069342A1 (LEGOCHEM BIOSCIENCES, published 2021).

Tests used:
[1] = target: T1, human ROR1 expressed on the cell surface (human, UniProt Q01973 30-937); assay: flow cytometry on MC38-human ROR1 cells, IgG titrated, FITC anti-human Fc detection, MFI ratio to 2nd Ab alone; log axis whose first tick is printed 0
T1 construct: whole, on cells; also called cell surface-expressed ROR1 antigen; ROR1 on JeKo-1, Mino, CHO-human ROR1, MC38-human ROR1 and other cancer cell lines
Text: (§1) For this experiment, using cell lines (FIG. 5 and FIG. 7, respectively) transiently (CHO-human ROR1, CHO-human ROR2, CHO-mouse ROR1) or stably (MC38-human ROR1) transfected with ROR1 gene to achieve artificial over-expression of ROR1 protein, an ROR1-expressing cell line (JeKo-1, Mino) (FIG. 6), a non ROR1-expressing cell line (MCF7) (FIG. 6) and a FACSCalibur (BD Biosciences) device was used to measure the degree to which anti-ROR1 antibody and ROR1 were bound, as follows. […] JeKo-1, Mino, CHO-human ROR1, CHO-mouse ROR1 and MC38-human ROR1 are all cell lines which express human ROR1 or mouse ROR1.
(§2) Specifically, after dissociating each cell line and washing in PBS, the number of cells was counted and adjusted to 2×10⁵ cells/200 PBS. Then the respective ROR1 monoclonal antibodies prepared in Embodiment 3 were diluted 5 times from 10 /mL or 10 /mL, then reacted for 1 hour at 4° C. After the reaction, the cells were washed in PBS, then FITC-marked constant region (Fc) specific antibody (Goat anti-human IgG FITC conjugate, Fc specific, Sigma, F9512, concentration 20 mg/ml) was suspended in 2 /1×10⁵ cells/200 PBS and reacted for 1 hour at 4° C. As for identification of the degree of expression of the transiently over-expressed human ROR1, human ROR2 and mouse ROR1, a commercially available FACS analysis antibody (anti-ROR1: R&D Systems, FAB 2000G, anti-ROR2: R&D, FAB20641P) was used. After reacting the cells were washed in PBS and analyzed using a FACSCalibur device. The negative control (2nd Ab) was only treated with FITC-marked constant region (Fc) specific antibody. The shifted readings for the respective experimental groups treated with ROR1 monoclonal antibody were compared against the shifted reading for the control group (MFI Ratio: MFI of anti-ROR1/MFI of 2nd Ab).

[2] = target: T1, human ROR1 expressed on the cell surface; assay: flow cytometry on Kasumi-2 cells (ALL), C2E3 IgG, FITC anti-human Fc detection
Description: (§3) FACS analysis (FACSCalibur, BD Biosciences) was used to analyze the binding of the anti-ROR1 antibody of the present invention to ROR1 in the above cell lines.
(§4) Specifically, the respective cell lines were dissociated and washed in PBS, then the numbers of cells were counted and adjusted to 2×10⁵ cells/200 PBS. Then, they were treated with 10 /mL of the antibody of clone name C2E3 of the ROR1 monoclonal antibodies prepared in Embodiment 3, and reacted for 1 hour at 4° C. After the reaction, the cells were washed in PBS, then FITC-marked constant region (Fc) specific antibody (Goat anti-human IgG FITC conjugate, Fc specific, Sigma, F9512, concentration 20 mg/ml) was suspended in 2 /1×10⁵ cells/200 PBS and reacted for 1 hour at 4° C. After reacting, the cells were washed with PBS and analyzed with the FACSCalibur equipment. The negative control was only treated with FITC-marked constant region (Fc) specific antibody. To compare the degree of ROR1 expression among the respective cancer cell lines, the quotient of dividing the shifted readings for the experimental group treated with the ROR1 monoclonal antibody (C2E3) of the present invention by the shifted readings for the control group (MFI Ratio: MFI of anti-ROR1/MFI or 2nd Ab) is indicated.

[3] = target: T2, human ROR2 over-expressed on CHO cells (CHO-human ROR2) (human, UniProt Q01974 34-943); assay: flow cytometry on CHO-S cells transiently over-expressing human ROR2, FITC anti-human Fc detection, MFI ratio to 2nd Ab alone
T2 construct: whole, on cells; Negative control; also called family protein human ROR2
Text: as §1, §2

[4] = target: T3, recombinant human ROR1-His (Sino Biological, 13968-H08H) (human, UniProt Q01973 30-406); assay: BLI (Octet), ROR1-His on Anti-Penta-His or AR2G biosensor, IgG 30 to 0.021 nM, 1:1 fit
T3 construct: extracellular domain; Bought protein; also called ROR1-HIS protein; not shown: His tag
Description: A 96-well black microplate (greiner bio one) was mounted on a biosensor tray case, and 200 10×KB or DW was added to each of 8 wells. Then Anti Penta His biosensors or 8 AR2G biosensors (ForteBio, USA) were inserted to hydrate for 10 minutes. 600 of the assay samples were diluted 2-fold or 3-fold to the appropriate assay concentrations, using 1×KB or 10×KB to 30 to 0.021 nM. To immobilize the antigen, recombinant human ROR1-His (Sino Biological, 13968-H08H) was diluted to 1 /ML with 10×KB or Sodium Acetate pH5 buffer. Immobilization was fixed at a threshold of 0.3 nm in the loading step. The association assay was carried out for 3 to 10 minutes, and the dissociation assay was carried out for 20 minutes. According to the Octet program template, the buffer was placed in a new 96-well black microplate according to order. As Baseline1, 200 10×KB or DW was placed. Then 200 each of 1 /mL of the antigen to be loaded, the ROR1-HIS protein, was added. As Baseline2, 200 10×KB or 1×KB was placed. Then to each well 30 to 0.021 nM of the diluted antibody and 200 each of 10×KB buffer or 1×KB corresponding to a reference blank was added. The temperature of the test plate was fixed at 30° C. After all of the samples were introduced, the equipment was started, and after the assay was completed, results were uploaded to the Octet Analysis 90 software, with KD values analyzed through 1:1 fitting. By obtaining KD values through the Octet assay method, it was confirmed that the anti-ROR1 antibody had strong binding potential to ROR1 antigen.

[5] = target: T1, human ROR1 expressed on the cell surface; assay: flow cytometry on Calu-6 cells (lung cancer), C2E3 IgG, FITC anti-human Fc detection
Description: as §3, §4

[6] = target: T1, human ROR1 expressed on the cell surface; assay: flow cytometry on A549 cells (lung cancer), C2E3 IgG, FITC anti-human Fc detection
Description: as §3, §4

[7] = target: T1, human ROR1 expressed on the cell surface; assay: flow cytometry on BT474 cells (breast cancer), C2E3 IgG, FITC anti-human Fc detection
Description: as §3, §4

T1 sequence (Q01973 30-937): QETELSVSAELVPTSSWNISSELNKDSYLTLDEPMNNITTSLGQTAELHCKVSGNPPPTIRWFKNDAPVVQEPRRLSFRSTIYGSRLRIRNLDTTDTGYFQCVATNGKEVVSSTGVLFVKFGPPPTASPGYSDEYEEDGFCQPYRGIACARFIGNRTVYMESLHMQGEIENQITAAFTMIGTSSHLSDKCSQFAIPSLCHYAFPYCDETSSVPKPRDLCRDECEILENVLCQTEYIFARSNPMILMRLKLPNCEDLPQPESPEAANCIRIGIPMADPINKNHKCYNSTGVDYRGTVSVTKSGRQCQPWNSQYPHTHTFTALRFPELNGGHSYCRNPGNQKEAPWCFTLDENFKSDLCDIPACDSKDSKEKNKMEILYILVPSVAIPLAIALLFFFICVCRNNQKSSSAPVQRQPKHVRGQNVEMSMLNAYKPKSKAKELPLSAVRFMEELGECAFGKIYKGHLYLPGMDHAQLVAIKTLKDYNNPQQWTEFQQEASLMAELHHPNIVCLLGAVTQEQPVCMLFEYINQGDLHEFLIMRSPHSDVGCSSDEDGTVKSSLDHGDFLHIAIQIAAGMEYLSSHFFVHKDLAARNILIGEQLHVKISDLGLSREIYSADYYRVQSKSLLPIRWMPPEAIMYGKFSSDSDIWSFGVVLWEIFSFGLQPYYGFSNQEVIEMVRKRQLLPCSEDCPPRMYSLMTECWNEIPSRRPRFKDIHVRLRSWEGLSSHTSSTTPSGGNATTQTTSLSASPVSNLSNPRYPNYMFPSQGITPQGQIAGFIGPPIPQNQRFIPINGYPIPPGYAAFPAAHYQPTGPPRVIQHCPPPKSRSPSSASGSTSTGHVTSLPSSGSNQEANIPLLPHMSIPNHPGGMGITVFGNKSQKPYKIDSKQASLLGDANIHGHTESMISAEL
T2 sequence (Q01974 34-943): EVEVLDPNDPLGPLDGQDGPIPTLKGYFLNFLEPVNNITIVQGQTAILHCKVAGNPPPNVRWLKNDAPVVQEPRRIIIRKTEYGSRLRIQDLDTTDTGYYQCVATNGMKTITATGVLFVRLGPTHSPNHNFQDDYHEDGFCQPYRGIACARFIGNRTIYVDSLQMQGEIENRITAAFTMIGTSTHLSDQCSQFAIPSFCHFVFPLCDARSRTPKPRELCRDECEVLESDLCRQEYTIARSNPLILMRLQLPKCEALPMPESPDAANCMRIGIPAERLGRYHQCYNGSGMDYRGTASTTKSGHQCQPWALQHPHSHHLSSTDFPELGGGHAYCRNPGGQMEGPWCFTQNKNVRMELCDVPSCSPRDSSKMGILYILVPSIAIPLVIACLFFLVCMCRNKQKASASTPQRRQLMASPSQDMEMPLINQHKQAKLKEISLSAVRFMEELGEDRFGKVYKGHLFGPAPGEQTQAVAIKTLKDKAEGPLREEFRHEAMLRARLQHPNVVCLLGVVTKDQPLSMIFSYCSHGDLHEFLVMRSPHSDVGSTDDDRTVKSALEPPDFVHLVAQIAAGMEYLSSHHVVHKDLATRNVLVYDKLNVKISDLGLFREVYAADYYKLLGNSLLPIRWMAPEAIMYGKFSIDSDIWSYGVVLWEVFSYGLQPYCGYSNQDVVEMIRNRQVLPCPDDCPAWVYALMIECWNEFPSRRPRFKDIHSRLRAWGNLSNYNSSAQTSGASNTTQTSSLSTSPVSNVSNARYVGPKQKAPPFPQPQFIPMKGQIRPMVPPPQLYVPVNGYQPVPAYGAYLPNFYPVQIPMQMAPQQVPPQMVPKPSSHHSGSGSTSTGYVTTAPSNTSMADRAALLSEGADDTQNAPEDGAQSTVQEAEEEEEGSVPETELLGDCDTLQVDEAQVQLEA
T3 sequence (Q01973 30-406): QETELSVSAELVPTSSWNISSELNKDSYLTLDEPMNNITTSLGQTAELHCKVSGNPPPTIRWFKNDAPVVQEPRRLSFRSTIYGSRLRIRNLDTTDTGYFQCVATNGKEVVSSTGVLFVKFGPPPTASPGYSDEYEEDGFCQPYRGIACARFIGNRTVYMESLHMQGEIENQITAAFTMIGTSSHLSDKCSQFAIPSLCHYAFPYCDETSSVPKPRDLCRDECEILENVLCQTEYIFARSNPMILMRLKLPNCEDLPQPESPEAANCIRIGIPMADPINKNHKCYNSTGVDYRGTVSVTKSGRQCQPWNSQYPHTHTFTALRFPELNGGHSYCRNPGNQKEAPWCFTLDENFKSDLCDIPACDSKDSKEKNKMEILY

B1: anti-ROR1 IgG antibody C2E3 (antibody, V domains shown)
VH: EVQLLESGGGLVQPGGSLRLSCAASGFTFSNYAMSWVRQAPGKGLEWVSSISHNSGSTYYADSVKGRFTISRDNSKNTLYLQMNSLRAEDTAVYYCAKFISARKSLGRSYSNGMDVWGQGTLVTVSS
VL: QSVLTQPPSASGTPGQRVTISCTGSSSNIGSNDVTWYQQLPGTAPKLLIYADSKRPSGVPDRFSGSKSGTSASLAISGLRSEDEADYYCGTWDYSLSGYVFGGGTKLTVLG
notes: Full IgG form (human IgG1 constant region, lambda light chain), expressed in CHO-S cells
[1]
  EC50 (read off the curve): ~0.1 µg/mL
[2]
  Mean Fold Ratio (MFI of anti-ROR1 / MFI of 2nd Ab): 11.5
[3]
  binding result: no binding
[4]
  kon: 5.46e+06 M⁻¹ s⁻¹
[5]
  Mean Fold Ratio (MFI of anti-ROR1 / MFI of 2nd Ab): 3.3
[6]
  Mean Fold Ratio (MFI of anti-ROR1 / MFI of 2nd Ab): 6
[7]
  Mean Fold Ratio (MFI of anti-ROR1 / MFI of 2nd Ab): 1.7
